According to publication PMC7518877, “The prefusion structure of herpes simplex virus glycoprotein B” (Science Advances, 2020):

Target: the molecule itself
Experiment: cryo-EM structure; electron cryo tomography and sub-volume averaging of gB H516P on purified extracellular vesicles; vesicles in 20 mM Hepes (pH 8), 150 mM NaCl; 46,067 sub-volumes, C3 symmetrised; ectodomain 9.0 Å; domains of the postfusion crystal structure fitted as rigid bodies and by MD-based flexible fitting

B1: HSV-1 glycoprotein B H516P, full-length, membrane-anchored, on extracellular vesicles (natural protein)
chain: not shown
notes: glycoprotein B (gB) of herpes simplex virus 1, full length with membrane anchor and cytoplasmic domain, gene in plasmid pEP98; Trimer embedded in the vesicle membrane; prefusion (compact) conformation; also called gB H516P; H516P gB variant; source: BHK-21 cells, transiently transfected; on extracellular vesicles harvested from the supernatant by differential centrifugation
  stoichiometry N: 3
